Test results published in patent publication US9156883B2, “Binding molecules for human factor VIII and factor VIII-like proteins” (DYAX CORP., priority 1999, dated 2015).
No end group written: not given here.

Assays:
factor VIII target = target: T1, factor VIII target (Homo sapiens, UniProt P00451); experiment: Phage ELISA of high scoring isolates from rounds 2 and 3, with versus without target; assay type: binding; details: phage isolates from rounds 2 and 3
T1 construct: amino acids 1-743 and 1638 through 2332 of human factor VIII; purchased Genetics Institute, Inc. (Cambridge, Mass.)
T1 sequence (P00451 20-762): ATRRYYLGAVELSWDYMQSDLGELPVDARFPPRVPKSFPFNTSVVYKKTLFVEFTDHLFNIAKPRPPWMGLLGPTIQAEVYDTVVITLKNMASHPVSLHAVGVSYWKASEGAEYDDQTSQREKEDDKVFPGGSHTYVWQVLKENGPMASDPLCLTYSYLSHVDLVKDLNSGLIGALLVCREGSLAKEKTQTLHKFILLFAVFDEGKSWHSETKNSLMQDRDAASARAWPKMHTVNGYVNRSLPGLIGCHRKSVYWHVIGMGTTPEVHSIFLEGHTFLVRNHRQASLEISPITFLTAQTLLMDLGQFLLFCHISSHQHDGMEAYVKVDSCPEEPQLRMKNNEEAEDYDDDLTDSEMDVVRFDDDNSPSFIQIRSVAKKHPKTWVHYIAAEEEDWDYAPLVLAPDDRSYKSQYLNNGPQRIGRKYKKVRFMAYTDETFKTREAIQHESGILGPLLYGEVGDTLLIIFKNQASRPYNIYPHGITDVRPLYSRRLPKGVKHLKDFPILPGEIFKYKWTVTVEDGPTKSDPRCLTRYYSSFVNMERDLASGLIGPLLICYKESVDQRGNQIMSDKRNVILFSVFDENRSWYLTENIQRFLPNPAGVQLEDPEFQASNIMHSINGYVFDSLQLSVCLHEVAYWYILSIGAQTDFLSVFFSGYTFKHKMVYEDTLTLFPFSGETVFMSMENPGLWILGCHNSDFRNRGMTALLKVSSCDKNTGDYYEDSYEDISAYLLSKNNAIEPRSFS
T1 sequence (P00451 1657-2351): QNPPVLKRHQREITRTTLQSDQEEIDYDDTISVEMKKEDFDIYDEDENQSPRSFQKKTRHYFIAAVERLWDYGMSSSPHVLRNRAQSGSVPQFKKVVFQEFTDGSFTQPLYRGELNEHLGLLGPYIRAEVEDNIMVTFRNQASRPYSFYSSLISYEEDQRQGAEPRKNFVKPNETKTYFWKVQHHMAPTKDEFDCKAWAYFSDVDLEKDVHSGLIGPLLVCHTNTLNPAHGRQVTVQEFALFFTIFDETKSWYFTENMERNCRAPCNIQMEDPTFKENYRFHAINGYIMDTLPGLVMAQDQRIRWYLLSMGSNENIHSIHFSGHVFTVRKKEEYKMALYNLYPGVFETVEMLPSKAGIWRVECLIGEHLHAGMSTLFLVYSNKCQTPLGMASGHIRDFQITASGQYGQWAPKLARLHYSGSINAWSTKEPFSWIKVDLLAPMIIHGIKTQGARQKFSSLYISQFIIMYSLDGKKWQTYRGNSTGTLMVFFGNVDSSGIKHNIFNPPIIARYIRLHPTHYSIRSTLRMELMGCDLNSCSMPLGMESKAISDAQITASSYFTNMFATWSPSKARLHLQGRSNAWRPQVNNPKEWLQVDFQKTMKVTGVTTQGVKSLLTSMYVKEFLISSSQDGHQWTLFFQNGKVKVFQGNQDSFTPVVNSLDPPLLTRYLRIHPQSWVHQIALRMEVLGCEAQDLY
Method: During analysis of the specific polypeptides of the invention, three libraries were isolated and screened. […] These libraries were designated TN7/1, TN8/6 anf TN9/1. In addition, important consensus sequences were determined.
Three rounds of screenings were carried out for each library. At the conclusion of the third round of screening eluted phage were propagated, and individual isolates from each library (96 per elution condition) were selected randomly and tested by standard ELISA techniques for binding to the factor VIII target. Bound phage were detected with HRP conjugated anti-M13 polyclonal antibody (Pharmacia). TMB Peroxidase substrate was used for HRP in the ELISA detection mechanism. TMB substrate produces a blue color after peroxidase digestion. The color is quantitated by absorbance at OD630. Phage isolates that provided a significant signal (OD630>0.25) above background were considered positive clones. […]

[1] = target: T2, REFACTO® (factor VIII-like polypeptide, amino acids 1-743 and 1638 through 2332 of human factor VIII) (Homo sapiens, UniProt P00451); experiment: Phage ELISA of third-round isolates for binding to the factor VIII target; details: HRP anti-M13, TMB, absorbance at OD630
T2 construct: amino acids 1-743 and 1638 through 2332 of human factor VIII; purchased Genetics Institute, Inc. (Cambridge, Mass.)
T2 sequence (P00451 20-762): T1 sequence (P00451 20-762)
T2 sequence (P00451 1657-2351): T1 sequence (P00451 1657-2351)
Source text: The techniques described above were employed to isolate high affinity binding molecules for ligands for recombinantly produced factor VIII-like polypeptide consisting of two segments of human factor VIII, i.e., amino acids 1-743 and 1638 through 2332 of human factor VIII, as described in U.S. Pat. No. 5,661,008 (Almstedt et al.), obtained under the commercial designation of REFACTO® from Genetics Institute, Inc. (Cambridge, Mass.). The REFACTO® target was provided at a concentration of about 530 μg/ml (7800 IU/ml) in 19.4 mM His, 300 mM NaCl, 3.4 mM CaCl2 and 0.1% Tween 80, pH 7.0.
Three libraries, designated TN7 (5×10^9 amino acid sequence diversity), TN8 (6×10^9 amino acid sequence diversity), and TN9 (5×10^9 amino acid sequence diversity), were constructed for expression of diversified polypeptides on M13 phage. Each library was screened for binders to purified REFACTO®. Each of the libraries was constructed to display a microprotein based on an 11- or 12-amino acid template. The TN7 library utilized a template sequence of Xaa-Xaa-Cys-Xaa-Xaa-Xaa-Xaa-Xaa-Cys-Xaa-Xaa; the TN8 library utilized a template sequence of Xaa-Xaa-Cys-Xaa-Xaa-Xaa-Xaa-Xaa-Xaa-Cys-Xaa-Xaa; the TN9 library utilized a template sequence of Xaa-Cys-Xaa-Xaa-Xaa-Xaa-Xaa-Xaa-Xaa-Cys-Xaa.
Three rounds of screenings were carried out for each library. At the conclusion of the third round of screening eluted phage were propagated, and individual isolates from each library (96 per elution condition) were selected randomly and tested by standard ELISA techniques for binding to the factor VIII target. Bound phage were detected with HRP conjugated anti-M13 polyclonal antibody (Pharmacia). TMB Peroxidase substrate was used for HRP in the ELISA detection mechanism. TMB substrate produces a blue color after peroxidase digestion. The color is quantitated by absorbance at OD630. Phage isolates that provided a significant signal (OD630>0.25) above background were considered positive clones.
Sequence data from the phage isolates were grouped by library and sorted according to the degree of similarity. The frequency at which any given sequence was obtained was noted since this indicates selection for a specific binder.

## FCWVFNFSHCS (cysteine pairing not given here) [TN9 isolate 03]
Factor VIII target
  R, ratio of the ELISA score with target present to the ELISA score without target: 24

## RLCSWISPCSA (cysteine pairing not given here) [TN7 isolate D04]
Factor VIII target
  R, ratio of the ELISA score with target present to the ELISA score without target: 6

## RLCSWVSPCSA (cysteine pairing not given here) [TN7 isolate C5/G10]
Factor VIII target
  R, ratio of the ELISA score with target present to the ELISA score without target: 10

## FCWVFPFHHCF (cysteine pairing not given here) [TN9 isolate 06]
Factor VIII target
  R, ratio of the ELISA score with target present to the ELISA score without target: 6

## HSCGSWLFPCFA (cysteine pairing not given here) [TN7 isolate A06]
Factor VIII target
  R, ratio of the ELISA score with target present to the ELISA score without target: 10

## 10 (HPCGSWLRPCLH; Selected Phage Display Sequence) [compound 10]
[1]; TN8 library phage isolates
  ELISA signal: 1.0

## FCWVFPFQHCA (cysteine pairing not given here) [TN9 isolate 09]
Factor VIII target
  R, ratio of the ELISA score with target present to the ELISA score without target: 24

## HPCGSWFNPCAH (cysteine pairing not given here) [TN8 isolate 02]
Factor VIII target
  R, ratio of the ELISA score with target present to the ELISA score without target: 8

## C5/G10 (RLCSWVSPCSA; Selected Phage Display Sequence)
[1]; TN7 library phage isolates
  ELISA signal: 0.5

## HLCFAWFRPCDA (cysteine pairing not given here) [TN8 isolate 12]
Factor VIII target
  R, ratio of the ELISA score with target present to the ELISA score without target: 8

## 07 (HACGSWFRPCHA; Selected Phage Display Sequence) [compound 07]
[1]; TN8 library phage isolates
  ELISA signal: 0.4

## 06 (FCWVFPFHHCF; Selected Phage Display Sequence) [compound 06]
[1]; TN9 library phage isolates
  ELISA signal: 0.3

## 09 (FCWVFPFQHCA; Selected Phage Display Sequence) [compound 09]
[1]; TN9 library phage isolates
  ELISA signal: 1.1

## A08 (FGCSWLFPCPF; Selected Phage Display Sequence)
[1]; TN7 library phage isolates
  ELISA signal: 0.4

## HPCGSWLHPCAA (cysteine pairing not given here) [TN8 isolate 04]
Factor VIII target
  R, ratio of the ELISA score with target present to the ELISA score without target: 6

## A06 (HSCGSWLFPCFA; Selected Phage Display Sequence)
[1]; TN7 library phage isolates
  ELISA signal: 0.5

## HPCGSWFRPCFH (cysteine pairing not given here) [TN8 isolate 02]
Factor VIII target
  R, ratio of the ELISA score with target present to the ELISA score without target: 16

## 08 (HPCGAWLRPCYN; Selected Phage Display Sequence) [compound 08]
[1]; TN8 library phage isolates
  ELISA signal: 1.0

## FGCSWLFPCPF (cysteine pairing not given here) [TN7 isolate A08]
Factor VIII target
  R, ratio of the ELISA score with target present to the ELISA score without target: 8

## HRCGSWLHPCLA (cysteine pairing not given here) [TN8 isolate 11/G10]
Factor VIII target
  R, ratio of the ELISA score with target present to the ELISA score without target: 6

## 11/G10 (HRCGSWLHPCLA; Selected Phage Display Sequence)
[1]; TN8 library phage isolates
  ELISA signal: 0.3

## FCWVFAFDHCH (Selected Phage Display Sequence) [Phe-Cys-Trp-Val-Phe-Ala-Phe-Asp-His-Cys-His]
Factor VIII target
  R, ratio of the ELISA score with target present to the ELISA score without target: 24

## 03 (FCWVFNFSHCS; Selected Phage Display Sequence) [compound 03]
[1]; TN9 library phage isolates
  ELISA signal: 1.1

## FCWVFQFRHCH (Selected Phage Display Sequence) [Phe-Cys-Trp-Val-Phe-Q-Phe-Arg-His-Cys-His]
Factor VIII target
  R, ratio of the ELISA score with target present to the ELISA score without target: 8

## 11 (FCHVFPFLHCD; Selected Phage Display Sequence) [compound 11]
[1]; TN9 library phage isolates
  ELISA signal: 0.2

## FCWVFPFNHCD (cysteine pairing not given here) [TN9 isolate 02]
Factor VIII target
  R, ratio of the ELISA score with target present to the ELISA score without target: 8

## HACGSWFRPCHA (cysteine pairing not given here) [TN8 isolate 07]
Factor VIII target
  R, ratio of the ELISA score with target present to the ELISA score without target: 6

## FCWVFPFNHCS (cysteine pairing not given here) [TN9 isolate 12]
Factor VIII target
  R, ratio of the ELISA score with target present to the ELISA score without target: 18

## HPCGSWLRPCLH (cysteine pairing not given here) [TN8 isolate 10]
Factor VIII target
  R, ratio of the ELISA score with target present to the ELISA score without target: 16

## D04 (RLCSWISPCSA; Selected Phage Display Sequence)
[1]; TN7 library phage isolates
  ELISA signal: 0.3

## HLCGAWFRPCDA (cysteine pairing not given here) [TN8 isolate 02]
Factor VIII target
  R, ratio of the ELISA score with target present to the ELISA score without target: 6

## D03 (PHCNWLFPCSL; Selected Phage Display Sequence)
[1]; TN7 library phage isolates
  ELISA signal: 0.2

## A09 (FHCIGVWFCLH; Selected Phage Display Sequence)
[1]; TN7 library phage isolates
  ELISA signal: 0.1

## 05 (RGCGSWLRPCLD; Selected Phage Display Sequence) [compound 05]
[1]; TN8 library phage isolates
  ELISA signal: 0.2

## FCHVFNFVHCS (cysteine pairing not given here) [TN9 isolate 01]
Factor VIII target
  R, ratio of the ELISA score with target present to the ELISA score without target: 8

## HPCGAWLRPCYN (cysteine pairing not given here) [TN8 isolate 08]
Factor VIII target
  R, ratio of the ELISA score with target present to the ELISA score without target: 20

## FCWVFNWVHCD (Selected Phage Display Sequence) [Phe-Cys-Trp-Val-Phe-Asn-Trp-Val-His-Cys-Asp]
Factor VIII target
  R, ratio of the ELISA score with target present to the ELISA score without target: 14
